Measured values taken from PMC12152161.
Where a chain is given by its changes, count along the chain named. Numbers in names are those of the source. Blank lines part the entries; values can stand above or below the binder they belong to.

Experiments:
[1] = target: T1, full-length KIF1C(WT)−Flag−EGFP (UniProt O43896)
T1 sequence: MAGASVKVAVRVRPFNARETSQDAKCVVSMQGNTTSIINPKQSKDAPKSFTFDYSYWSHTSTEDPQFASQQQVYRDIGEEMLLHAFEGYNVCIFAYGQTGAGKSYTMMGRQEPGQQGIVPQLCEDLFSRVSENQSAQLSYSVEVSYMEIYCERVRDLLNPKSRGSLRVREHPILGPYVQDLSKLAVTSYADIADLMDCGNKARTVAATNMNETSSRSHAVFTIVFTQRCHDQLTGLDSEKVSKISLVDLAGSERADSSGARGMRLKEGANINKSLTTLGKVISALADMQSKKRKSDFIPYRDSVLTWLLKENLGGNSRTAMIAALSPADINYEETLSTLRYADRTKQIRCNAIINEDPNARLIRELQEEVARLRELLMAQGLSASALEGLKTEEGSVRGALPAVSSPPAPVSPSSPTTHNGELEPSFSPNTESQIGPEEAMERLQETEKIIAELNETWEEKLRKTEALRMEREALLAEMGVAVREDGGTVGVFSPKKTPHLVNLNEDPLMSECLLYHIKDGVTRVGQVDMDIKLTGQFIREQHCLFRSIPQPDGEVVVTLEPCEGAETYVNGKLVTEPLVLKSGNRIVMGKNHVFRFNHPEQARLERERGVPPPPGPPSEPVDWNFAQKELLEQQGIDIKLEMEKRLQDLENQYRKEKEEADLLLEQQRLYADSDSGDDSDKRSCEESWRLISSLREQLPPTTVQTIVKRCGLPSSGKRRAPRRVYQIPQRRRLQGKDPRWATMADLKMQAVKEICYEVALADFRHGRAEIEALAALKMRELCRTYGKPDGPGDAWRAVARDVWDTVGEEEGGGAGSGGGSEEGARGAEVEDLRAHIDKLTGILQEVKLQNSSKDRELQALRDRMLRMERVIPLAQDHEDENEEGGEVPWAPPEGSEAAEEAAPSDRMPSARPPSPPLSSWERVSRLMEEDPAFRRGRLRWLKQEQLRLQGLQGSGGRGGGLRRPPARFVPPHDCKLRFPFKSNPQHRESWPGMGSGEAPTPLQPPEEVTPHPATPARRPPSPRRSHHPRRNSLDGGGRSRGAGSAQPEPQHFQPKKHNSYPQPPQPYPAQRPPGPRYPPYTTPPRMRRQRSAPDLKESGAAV

[2] = target: T2, full-length KIF1C(Y757A ∙ F764A)−Flag−EGFP (UniProt O43896)
T2 sequence: T1 sequence with Y757A, F764A

tail/cytoplasm ratio of Hook3−Myc−FuRed upon co-expression in RPE1 cells, 16 h post transfection (tail/cytoplasm ratio) [1]: 0.7
tail/cytoplasm ratio of Hook3−Myc−FuRed upon co-expression in RPE1 cells, 16 h post transfection (tail/cytoplasm ratio) [2]: 0.7
B1: full-length Hook3(V614E)−Myc−FuRed (natural protein)
chain: MFSVESLERAELCESLLTWIQTFNVDAPCQTVEDLTNGVVMAQVLQKIDPAYFDENWLNRIKTEVGDNWRLKISNLKKILKGILDYNHEILGQQINDFTLPDVNLIGEHSDAAELGRMLQLILGCAVNCEQKQEYIQAIMMMEESVQHVVMTAIQELMSKESPVSAGNDAYVDLDRQLKKTTEELNEALSAKEEIAQRCHELDMQVAALQEEKSSLLAENQVLMERLNQSDSIEDPNSPAGRRHLQLQTQLEQLQEETFRLEAAKDDYRIRCEELEKEISELRQQNDELTTLADEAQSLKDEIDVLRHSSDKVSKLEGQVESYKKKLEDLGDLRRQVKLLEEKNTMYMQNTVSLEEELRKANAARSQLETYKRQVVELQNRLSEESKKADKLDFEYKRLKEKVDSLQKEKDRLRTERDSLKETIEELRCVQAQEGQLTTQGLMPLGSQESSDSLAAEIVTPEIREKLIRLQHENKMLKLNQEGSDNEKIALLQSLLDDANLRKNELETENRLVNQRLLEVQSQVEELQKSLQDQGSKAEDSVLLKKKLEEHLEKLHEANNELQKKRAIIEDLEPRFNNSSLKIEELQEALRKKEEEMKQMEERYKKYLEKAKSEIRTLDPKQNQGAAPEIQALKNQLQERDRLFHSLEKEYEKTKSQREMEEKYIVSAWYNMGMTLHKKAAEDRLASTGSGQSFLARQRQATSSRRSYPGHVQPATAR

tail/cytoplasm ratio of Hook3−Myc−FuRed upon co-expression in RPE1 cells, 16 h post transfection (tail/cytoplasm ratio) [2]: 0.7
B2: full-length Hook3(WT)−Myc−FuRed (natural protein)
chain: B1 chain with E614V
